We go through 9 molecules from patent publication US20110236969A1.

The target of assay [1] is GST-fused human V158 FcγRIIIa (extracellular region) (human) (UniProt P08637). The assay is described as follows: SPR, GST-FcγRIIIa V158 on chip.
For assay [2] the target is unchanged. Nature of the assay: AlphaScreen competition with biotin-WT AC10. A general note: Bead proximity is the source of the signal in Alpha formats.
Assay [3] concerns the target T1, human CD30 (commercial), conjugated to digoxigenin (human) (UniProt P28908).
T1 sequence (conjugated to digoxigenin (DIG), looked up): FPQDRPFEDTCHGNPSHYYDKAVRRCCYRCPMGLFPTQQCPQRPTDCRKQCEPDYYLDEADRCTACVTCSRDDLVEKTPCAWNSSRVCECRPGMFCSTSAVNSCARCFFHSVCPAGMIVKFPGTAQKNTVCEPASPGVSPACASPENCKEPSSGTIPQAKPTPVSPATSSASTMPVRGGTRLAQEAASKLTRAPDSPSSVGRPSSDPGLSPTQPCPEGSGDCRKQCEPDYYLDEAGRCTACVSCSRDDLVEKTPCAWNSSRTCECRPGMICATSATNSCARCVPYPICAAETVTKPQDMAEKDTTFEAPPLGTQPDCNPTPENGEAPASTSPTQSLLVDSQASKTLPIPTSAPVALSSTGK
The assay is described as follows: AlphaScreen competition with biotin-WT AC10.

In assay [4] the target is CD30 fused to the Fc region of IgG1 (R&D Systems) (UniProt P28908). The assay is described as follows: SPR, CD30-Fc on Protein A chip.

In general, Kd refers to a measure of binding affinity in units of concentration. Low values mean higher affinity, high ones lower affinity. One may read the IC50 as the concentration that gives 50% inhibition. A higher IC50 goes with a need for much substance.

Sequence of GST-fused human V158 FcγRIIIa (extracellular region) (human) (P08637 17-208 F176V): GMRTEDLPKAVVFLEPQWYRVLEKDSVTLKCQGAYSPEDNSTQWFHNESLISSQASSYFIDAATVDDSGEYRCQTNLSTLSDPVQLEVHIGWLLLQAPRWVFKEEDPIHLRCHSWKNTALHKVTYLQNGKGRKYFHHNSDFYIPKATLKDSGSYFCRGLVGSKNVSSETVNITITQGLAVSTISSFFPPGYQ

In the case of “WT AC10 antibody H0L0 (H0 AC10 VH, L0 AC10 VL)”, the Kd in assay [1] was 18.6 nM. The IC50 in assay [2] came to 87.2 nM.

B1: AC10 H1L2 (H1 AC10 VH, L2 AC10 VL) (antibody, from a related filing, IgG1, V domains shown)
VH: QIQLVQSGPEVKKPGASVKVSCKASGYTFTDYYITWVRQAPGQGLEWMGWIYPGSGNTKYNEKFQGRVTITVDTSASTAYMELSSLRSEDTAVYFCANYGNYWFAYWGQGTLVTVSS
VL: DIVLTQSPSSLSASVGDRVTITCRASQSVDFDGDSYMNWYQQKPGQPPKVLIYAASNLESGIPARFSGSGSGTDFTLTISSLQPEDFATYYCQQSNEDPWTFGGGTKVEIK
B1: the figures for the Fold KD relative to WT in assay [1] and in assay [4] were 1.12 fold and 0.45 fold, respectively. The figures for the dissociation constant (Kd) in assay [1] and in assay [4] were 16.6 nM and 7.55 nM, respectively. Further, the Fold IC50 relative to WT is 0.07 fold in assay [3] and 0.26 fold in assay [2]. The IC50 in assay [3] turned out to be 45.3 nM; in assay [2], 340 nM.

B2: AC10 H3L3 (H3 AC10 VH, L3 AC10 VL) (antibody, from a related filing, IgG1, V domains shown)
VH: QIQLVQSGPEVKKPGASVKVSCKASGYTFTDYYITWVRQAPGQGLEWMGWIYPGSGNTKYNEKFQGRFVFSVDTSASTAYLQISSLKAEDTAVYFCANYGNYWFAYWGQGTLVTVSS
VL: DIVLTQSPDSLAVSLGERATINCKASQSVDFDGDSYMNWYQQKPGQPPKVLIYAASNLESGIPARFSGSGSGTDFTLTINSLEAEDAATYYCQQSNEDPWTFGGGTKVEIK
In assay [1], B2 showed a Fold KD relative to WT of 3.03 fold and a Kd of 6.13 nM. Further, in assay [3], the Fold IC50 relative to WT came to 1.59 fold and the IC50 is 1.99 nM. In assay [2], this molecule yielded a Fold IC50 relative to WT of 1.04 fold and a half-maximal inhibitory concentration (IC50) of 83.5 nM. Also, in assay [4], the Fold KD relative to WT was found to be 1.45 fold and the Kd came to 2.33 nM.

B3: AC10 H2L1 (H2 AC10 VH, L1 AC10 VL) (antibody, from a related filing, IgG1, V domains shown)
VH: QIQLVESGGGLVKPGGSLRLSCAASGYTFTDYYITWVRQAPGQGLEWMGWIYPGSGNTKYNEKFQGRVTMTVDTSTSTAYMELSSLRSEDTAVYFCANYGNYWFAYWGQGTLVTVSS
VL: DIVLTQSPATLSLSPGERATLSCRASQSVDFDGDSYMNWYQQKPGQPPKVLIYAASNLESGIPARFSGSGSGTDFTLTISSLQPEDFATYYCQQSNEDPWTFGGGTKVEIK
In assay [1], B3 displayed a Fold KD relative to WT of 1.25 fold and a Kd of 14.9 nM. Moreover, in assay [3], the Fold IC50 relative to WT came to 0.06 fold and the IC50 turned out to be 55.1 nM. In assay [2], the Fold IC50 relative to WT came to 0.12 fold and the IC50 turned out to be 751 nM. For the same molecule, in assay [4], the Fold KD relative to WT is 0.36 fold and the Kd was found to be 9.49 nM.

B4: AC10 H3L1 (H3 AC10 VH, L1 AC10 VL) (antibody, from a related filing, IgG1, V domains shown)
VH: QIQLVQSGPEVKKPGASVKVSCKASGYTFTDYYITWVRQAPGQGLEWMGWIYPGSGNTKYNEKFQGRFVFSVDTSASTAYLQISSLKAEDTAVYFCANYGNYWFAYWGQGTLVTVSS
VL: DIVLTQSPATLSLSPGERATLSCRASQSVDFDGDSYMNWYQQKPGQPPKVLIYAASNLESGIPARFSGSGSGTDFTLTISSLQPEDFATYYCQQSNEDPWTFGGGTKVEIK
B4: the Kd worked out at 17.4 nM in assay [1] and 2.44 nM in assay [4]. The IC50 in assay [3] was found to be 6.09 nM; in assay [2], 209 nM. In assay [4], the Fold KD relative to WT is 1.39 fold.

B5: AC10 H1L1 (H1 AC10 VH, L1 AC10 VL) (antibody, from a related filing, IgG1, V domains shown)
VH: QIQLVQSGPEVKKPGASVKVSCKASGYTFTDYYITWVRQAPGQGLEWMGWIYPGSGNTKYNEKFQGRVTITVDTSASTAYMELSSLRSEDTAVYFCANYGNYWFAYWGQGTLVTVSS
VL: DIVLTQSPATLSLSPGERATLSCRASQSVDFDGDSYMNWYQQKPGQPPKVLIYAASNLESGIPARFSGSGSGTDFTLTISSLQPEDFATYYCQQSNEDPWTFGGGTKVEIK
B5: the Fold KD relative to WT in assay [1] worked out at 1.66 fold; in assay [4] it was 0.6 fold. The Kd in assay [1] stood at 11.2 nM; in assay [4], 5.63 nM. The values for the Fold IC50 relative to WT in assay [3] and in assay [2] were 0.11 fold and 0.39 fold, respectively. The figures for the 50% inhibitory concentration (IC50) in assay [3] and in assay [2] were 27.7 nM and 221 nM, respectively.

B6: AC10 H2L2 (H2 AC10 VH, L2 AC10 VL) (antibody, from a related filing, IgG1, V domains shown)
VH: QIQLVESGGGLVKPGGSLRLSCAASGYTFTDYYITWVRQAPGQGLEWMGWIYPGSGNTKYNEKFQGRVTMTVDTSTSTAYMELSSLRSEDTAVYFCANYGNYWFAYWGQGTLVTVSS
VL: DIVLTQSPSSLSASVGDRVTITCRASQSVDFDGDSYMNWYQQKPGQPPKVLIYAASNLESGIPARFSGSGSGTDFTLTISSLQPEDFATYYCQQSNEDPWTFGGGTKVEIK
For B6, the Kd in assay [1] is 4.01 nM; in assay [4], 5.95 nM. Besides, the IC50 in assay [3] was found to be 49.2 nM.

B7: AC10 H1L3 (H1 AC10 VH, L3 AC10 VL) (antibody, from a related filing, IgG1, V domains shown)
VH: QIQLVQSGPEVKKPGASVKVSCKASGYTFTDYYITWVRQAPGQGLEWMGWIYPGSGNTKYNEKFQGRVTITVDTSASTAYMELSSLRSEDTAVYFCANYGNYWFAYWGQGTLVTVSS
VL: DIVLTQSPDSLAVSLGERATINCKASQSVDFDGDSYMNWYQQKPGQPPKVLIYAASNLESGIPARFSGSGSGTDFTLTINSLEAEDAATYYCQQSNEDPWTFGGGTKVEIK
With B7, the figures for the Fold KD relative to WT in assay [1] and in assay [4] were 1.66 fold and 0.67 fold, respectively. In addition, the Kd is 11.2 nM in assay [1] and 5.09 nM in assay [4]. For the same molecule, the results for the Fold IC50 relative to WT in assay [3] and in assay [2] were 0.18 fold and 0.49 fold, respectively. Also, the 50% inhibitory concentration (IC50) in assay [3] was 17.4 nM; in assay [2] it was 178 nM.

B8: AC10 H2L3 (H2 AC10 VH, L3 AC10 VL) (antibody, from a related filing, IgG1, V domains shown)
VH: QIQLVESGGGLVKPGGSLRLSCAASGYTFTDYYITWVRQAPGQGLEWMGWIYPGSGNTKYNEKFQGRVTMTVDTSTSTAYMELSSLRSEDTAVYFCANYGNYWFAYWGQGTLVTVSS
VL: DIVLTQSPDSLAVSLGERATINCKASQSVDFDGDSYMNWYQQKPGQPPKVLIYAASNLESGIPARFSGSGSGTDFTLTINSLEAEDAATYYCQQSNEDPWTFGGGTKVEIK
In the case of B8, in assay [1], the Fold KD relative to WT is 5.28 fold and the Kd was determined as 3.52 nM. In assay [3], this molecule displayed a Fold IC50 relative to WT of 0.12 fold and an IC50 of 27.2 nM. In assay [2], this molecule had a Fold IC50 relative to WT of 0.48 fold and a 50% inhibitory concentration (IC50) of 183 nM. In assay [4], this molecule returned a Fold KD relative to WT of 0.5 fold and a Kd of 6.75 nM.
